Where no end group is shown, it is not given here. The star is where a group is joined. Biotin = O=C1N[C@H]2[C@H](CS[C@H]2CCCCC(=O)*)N1 A value given as a limit tells only on which side of the number the result lay.

To fix the notation:
B1: Example 64 lysine-linked dimer MLAERKAEERRWFNTHGRE / MLAERKAEERRWFNTHGREK (peptide)
peptide 1: MLAERKAEERRWFNTHGRE
peptide 2: MLAERKAEERRWFNTHGREK-NH2
modifications: also: chain 1 C-terminus joined to the C-terminal Lys of chain 2 (branch link drawn)
notes: also called Ex. No. 64
B2: Example 53 peptide LLDICELKLQECARRCN (AF15846), oxidation state as tested not stated (peptide)
peptide: H-LLDICELKLQECARRCN-OH
modifications: also: oxidation state as tested not given here, active only after oxidation, as a dimer
notes: also called Ex. No. 53; Ex. 78 peptide
B3: Example 50 dimer of DLWYLESKLEECARRANG (peptide)
peptide: H-DLWYLESKLEECARRANG-NH2
modifications: also: disulfide at 12, other end not in the chain
notes: T0034 draws this dimer as [H]-...-[NH2]; also called Ex. No. 50

One experiment addresses T1, granulocyte-colony stimulating factor receptor (G-CSFR), purified / soluble receptor used in the binding … (UniProt Q99062 25-627, limits assumed).
T1 construct: also called G-CSF receptor; soluble G-CSFR harvest
T1 sequence (looked up): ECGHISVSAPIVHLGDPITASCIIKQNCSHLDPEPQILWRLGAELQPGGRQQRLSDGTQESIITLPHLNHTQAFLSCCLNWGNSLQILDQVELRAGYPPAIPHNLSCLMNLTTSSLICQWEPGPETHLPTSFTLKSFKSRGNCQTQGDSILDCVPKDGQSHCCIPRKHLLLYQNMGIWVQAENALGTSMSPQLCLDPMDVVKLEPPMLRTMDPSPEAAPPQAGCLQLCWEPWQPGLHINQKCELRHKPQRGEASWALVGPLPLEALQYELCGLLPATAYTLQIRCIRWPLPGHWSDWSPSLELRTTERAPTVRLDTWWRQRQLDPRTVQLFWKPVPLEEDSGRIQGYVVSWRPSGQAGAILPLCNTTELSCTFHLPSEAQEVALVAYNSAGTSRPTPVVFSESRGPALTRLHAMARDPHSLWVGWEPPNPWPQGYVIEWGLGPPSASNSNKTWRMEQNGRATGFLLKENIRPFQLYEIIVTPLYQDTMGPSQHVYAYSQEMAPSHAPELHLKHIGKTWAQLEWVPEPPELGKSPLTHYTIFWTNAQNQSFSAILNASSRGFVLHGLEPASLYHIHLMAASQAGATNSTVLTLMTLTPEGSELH
In words: SPA competition with 125I-G-CSF on G-CSFR-coated beads; hybrid grade, at or near the cutoff. The procedure:
(§1) Streptavidin-coated scintillation proximity assay (SPA) beads (Amersham) were mixed with biotinylated anti-receptor immobilizing antibody (Ab179) followed by incubation with soluble G-CSFR harvest. Receptor-coated SPA beads were washed twice in PBS/0.1% BSA and distributed to wells of a white polystyrene 96-well microtiter plate (Packard). Serial dilutions of peptide or peptide mimetic were mixed with a constant amount of ¹²⁵I labeled G-CSF (10⁵ cpm; 1290 Ci/mmol) in PBS/0.1% BSA, added to wells containing receptor-coated SPA beads, and incubated overnight at 4° C. The binding of radiolabeled G-CSF to the receptor-coated SPA bead brings the isotope in close proximity to the scintillant, which allows the emitted radiation to stimulate the scintillant to emit light. […] The amount of ¹²⁵I labeled G-CSF that was bound at equilibrium was measured by counting the plate in a TopCount (Wallac) microtiter plate luminometer. The assay is conducted over a range of peptide concentrations and the results are graphed such that the y-axis represents the amount of bound ¹²⁵I labeled G-CSF and the x-axis represents the concentration of peptide or peptide mimetic. One can determine the concentration at which the peptide or peptide mimetic will reduce by 50% (IC₅₀) the amount of ¹²⁵I labeled G-CSF bound to immobilized G-CSFR. The dissociation constant (Kd) for the peptide should be similar to the measured IC₅₀ using the assay conditions described above.
B1: the IC50 was approximately 200 µM.

In turn, ALLMCESKLAECARAR (also called Ex. No. 49) [Example 49 peptide ALLMCESKLAECARAR] showed an IC50 of approximately 200 µM. Take LAHCLLRLEECAAG (also called Ex. No. 48) [Example 48 peptide LAHCLLRLEECAAG]: the concentration for half-maximal inhibition (IC50) is approximately 200 µM. CESRLVECSRM (also called Ex. No. 47) [Example 47 peptide CESRLVECSRM]: the IC50 is approximately 200 µM.

For the next experiment, the target named is T1, granulocyte-colony stimulating factor …. In words: specific binding to G-CSFR (total minus non-specific binding with excess unlabeled ligand).
On to CQRAGYMLAC (also called Ex. No. 8) [Example 8 peptide CQRAGYMLAC], for which the binding result is on record as “no binding”. Take CETLCGACFC (also called Ex. No. 15) [Example 15 peptide CETLCGACFC]: the binding result is given as “no binding”. In the case of CFWSDWGQTC (also called Ex. No. 11) [Example 11 peptide CFWSDWGQTC], the binding result is listed as “no binding”. On the same count and under the same terms, the result for CTWTDLESVY (also called Ex. No. 10) [Example 10 peptide CTWTDLESVY] reads “no binding”.

CHANPVWGEC (also called Ex. No. 9) [Example 9 peptide CHANPVWGEC]: the binding result was “no binding”.

For a further experiment the target is unchanged. In words: SPA competition with 125I-G-CSF on G-CSFR-coated beads; grade defined in paragraph 137. The protocol:
as §1
For LGIEGRTGGGLLDICELKLQECARRCN (also called Ex. No. 56) [Example 56 peptide LGIEGRTGGGLLDICELKLQECARRCN], the IC50 is not above 0.5 µM. Consider H-EQSNSGWVWVGGGGC-NH2 (also called Ex. No. 45) [Example 45 peptide NH2-EQSNSGWVWVGGGGC-CONH2 (monomer)], for which the IC50 is not above 200 µM.

Molecule H-STAERLWFCG-NH2 (also: homodimer via interchain disulfide between the Cys residues, also called Ex. No. 37; Ex. 76) [Example 37 dimer of NH2-STAERLWFCG-CONH2] came in with an IC50 not above 200 µM. Take CGCHVSPVQIKALC (also called Ex. No. 71) [Example 71 peptide CGCHVSPVQIKALC]: the 50% inhibitory concentration (IC50) was not above 200 µM. Consider YLELCQLRLEECARQFN (also called Ex. No. 70) [Example 70 peptide YLELCQLRLEECARQFN], for which the IC50 is not above 200 µM.

Biotin-KLLDICELKLQEAARRCN (cysteine pairing not given here, also called Ex. No. 60) [Example 60 peptide Biotin-KLLDICELKLQEAARRCN]: the IC50 is not above 200 µM. As to H-EQSNSGWVWVGGGGC-NH2 (also: homodimer linked through the C-terminal Cys residues, also called Ex. No. 46) [Example 46 dimer of NH2-EQSNSGWVWVGGGGC-CONH2], the IC50 was not above 200 µM. The same measure, in the same setting: the result for GRTGGGLLDICELKLQECARRCN (also called Ex. No. 55) [Example 55 peptide GRTGGGLLDICELKLQECARRCN] reads not above 0.5 µM. The molecule Biotin-KGGGMLAERKAEERRWFNTHGRE (also called Ex. No. 63) [Example 63 peptide Biotin-KGGGMLAERKAEERRWFNTHGRE] came in with an IC50 not above 200 µM.

For B2, the IC50 was not above 0.5 µM. For LLDICELKLQECARRAN (not fully specified (bridges); cysteine pairing not given here, also called Ex. No. 57) [Example 57 peptide LLDICELKLQECARRAN], the IC50 is not above 200 µM.

Consider Biotin-LLDICELKLQECARRAN (cysteine pairing not given here, also called Ex. No. 59) [Example 59 peptide Biotin-LLDICELKLQECARRAN], for which the IC50 is not above 200 µM. With H-LLDICELKLQEAARRCN-OH (not fully specified (bridges); cysteine pairing not given here, also called Ex. No. 58) [Example 58 peptide LLDICELKLQEAARRCN], the IC50 is not above 200 µM. Molecule H-LLDIAELKLQECARRCN-OH (not fully specified (bridges); cysteine pairing not given here, also called Ex. No. 61) [Example 61 peptide LLDIAELKLQECARRCN] yielded an IC50 not above 200 µM. On the same count and under the same terms, the result for GGGLLDICELKLQECARRCN (also called Ex. No. 54) [Example 54 peptide GGGLLDICELKLQECARRCN] reads not above 0.5 µM; that for H-EQSNSGWVWV-NH2 (also called Ex. No. 35; Ex. 74) [Example 35 peptide NH2-EQSNSGWVWV-CONH2], not above 200 µM; that for H-DLWYLESKLEECARRCNG-NH2 (not fully specified (bridges); cysteine pairing not given here, also called Ex. No. 51) [Example 51 peptide DLWYLESKLEECARRCNG], not above 200 µM. Molecule B3 gave an IC50 not above 200 µM. With H-DLWYLESKLEEAARRCNG-NH2 (also: homodimer via interchain disulfide between the Cys residues, also called Ex. No. 52) [Example 52 dimer of DLWYLESKLEEAARRCNG], the IC50 was not above 200 µM.

As for Biotin-KLLDIAELKLQECARRCN (cysteine pairing not given here, also called Ex. No. 62) [Example 62 peptide Biotin-KLLDIAELKLQECARRCN], the IC50 is not above 200 µM. On the same count and under the same terms, the result for CSTGGGLTAERDAEKRRWLLTHGGE (also: homodimer linked through the N-terminal Cys residues, also called Ex. No. 67) [Example 67 dimer of CSTGGGLTAERDAEKRRWLLTHGGE] reads not above 200 µM.

The IC50 is the midpoint of a concentration-inhibition curve. Read a low IC50 as greater potency.

The values are drawn from patent US20050277588A1 (AFFYMAX, published 2005).
